Where two headings read alike, the source gives them in different places.
B1: clusterin 1 (ssDNA)
DNA: CTCCTCTGACTGTAACCACGTTAGGCGAGAACATGTCAGTACGTCGACGTTCTACTTGCTGCATAGGTAGTCCAGAAGCC

Tests used:
[1] = biological target: T1, clusterin (apolipoprotein J) (UniProt P10909 23-449); assay: AuNP colorimetric aggregation assay
[2] = biological target: T1, clusterin (apolipoprotein J); assay: AuNP colorimetric aggregation assay; remark: listed apart in the source

T1 sequence (P10909 23-449): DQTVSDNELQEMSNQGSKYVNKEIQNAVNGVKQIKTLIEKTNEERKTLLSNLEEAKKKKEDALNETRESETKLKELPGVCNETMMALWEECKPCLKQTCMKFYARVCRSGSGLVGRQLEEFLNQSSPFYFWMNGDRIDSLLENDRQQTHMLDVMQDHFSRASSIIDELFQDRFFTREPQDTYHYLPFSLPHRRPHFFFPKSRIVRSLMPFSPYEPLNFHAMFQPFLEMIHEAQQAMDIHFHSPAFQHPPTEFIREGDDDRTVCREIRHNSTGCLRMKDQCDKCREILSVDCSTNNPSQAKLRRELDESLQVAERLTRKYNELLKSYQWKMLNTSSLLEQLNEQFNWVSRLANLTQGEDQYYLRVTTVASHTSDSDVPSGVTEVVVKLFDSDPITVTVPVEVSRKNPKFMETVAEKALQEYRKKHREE

Binder	binding result [1]	binding result [2]
CTCCTCTGACTGTAACCACGTTAGGCGAGAACATGTCAGT (ssDNA) [clusterin 2]	binds	–
B1	–	binds

— PMC10173331
